Tested on: MS2 coat protein
Assay: apparent KD of MS2 coat protein; designed switch direction (-1 OFF switch, 1 ON switch): -1; higher = weaker reporter binding
Outline: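 Designed RNA switches were transcribed on Illumina chips by stalled E. coli RNA polymerase and titrated with SNAP-549-labelled MS2 coat protein from 0.7 or 1.5 nM, doubling to 3 µM. Step length ran from 0.8–1.5 h at the lowest concentration to 10–20 min at the highest. The apparent KD is the median over clusters for each design, from curve-fitted normalised cluster fluorescence.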

[1] = Eterna round: R95, input ligand: FMN 200 uM
[2] = Eterna round: R95, input ligand: microRNA oligo, concentration not stated
[3] = Eterna round: R95, input ligand: none
[4] = input ligand: microRNA oligo, concentration not stated

| Sequence | apparent KD of MS2 coat protein [1] | apparent KD of MS2 coat protein [2] | apparent KD of MS2 coat protein [3] | apparent KD of MS2 coat protein (input ligand: FMN 200 uM) | apparent KD of MS2 coat protein (input ligand: none) | apparent KD of MS2 coat protein [4] |
| --- | --- | --- | --- | --- | --- | --- |
| GAUAAGGUAGGAUAUACGAAUAAAUAGGGUAGUAAUAAUACACAUGAGGAUCACCCAUGUAGAAGGACCAAUAG [Mat - Exclusion 2 - Mod of my Tesla design - D41] (puzzle: Exclusion 2) | 37.4 nM | 19.4 nM | 21.4 nM |  |  |  |
| GAUAGAGAGCAGGAUAUCUUGGGUAAGUAUCAUAGAGAAGGGCUCACAUGAGGAUCACCCAUGUGGUCCAAGAU [Dibira] (puzzle: Exclusion 6) | 42.8 nM | 13 nM | 12.6 nM |  |  |  |
| GAUAGAGAGCAGGAUAUCUUGGGUAAGUAUCGUAGAGAAGGGCUCACAUGAGGAUCACCCAUGUGGUCCAAGAU [JL Dibiri mod 01] (puzzle: Exclusion 6) |  | 14.4 nM |  |  |  |  |
| GAUAUAGAGCAGGAUAUCUUAGAUAUGUAAUAAAGAGAAGGGCUCACAUGAGGAUCACCCAUGUGGUCCUAGAU [JL Dibiri mod 13] (puzzle: Exclusion 6) |  | 20.7 nM |  |  |  |  |
| GAUCAACAUGAGGAUCACCCAUGUGAGGAUAUGAUACUAUGUACUUCGGUACAUAGUAUCAGAAGGCACAUUGA [Ex1-3: 42] (puzzle: Exclusion 1) |  | 90.9 nM |  |  |  |  |
| GAUCAUGCAGGAUAUACAGUUUCCAUGAUAACAUGGUCCUCACAUGAGGAUCACCCAUGUAGAAGGGCAUGAUC [Omei Ex2 A29] (Eterna round: R97, puzzle: Exclusion 2) |  |  |  | 258 nM | 1080 nM |  |
| GAUCAUGCAGGAUAUACAUGGAUCAUGAAAACAUGGAUUUCACAUGAGGAUCACCCAUGUAGAAGGGCAUGAUC [Omei Ex2 A10] (Eterna round: R97, puzzle: Exclusion 2) |  |  |  | 47.5 nM | 141 nM |  |
| GAUCCACAUGAGGAUCACCCAUGUGAGGAUAUGAUACUAUGUACUUCGGUACAUAGUAUCAGAAGGCACAGGUC [Ex1-3: 56] (Eterna round: R96, puzzle: Exclusion 1) |  |  |  | 333 nM | 52.9 nM | 50.7 nM |
| GAUCCACAUGAGGAUCACCCAUGUGAGGAUAUGAUACUAUGUACUUCGGUACAUAGUAUCAGAAGGCACAGGUC [Ex1-3: 56] (puzzle: Exclusion 1) |  | 50.6 nM |  |  |  |  |
| GAUGAGGUAGGAUAUACGAUAAUAUAGGGUAGAUAUAUAACACAUGAGGAUCACCCAUGUAGAAGGACCAGUAC [Mat - Exclusion 2 - Mod of my Tesla design - D69] (puzzle: Exclusion 2) |  | 36.4 nM |  |  |  |  |
| GAUGUUUAAGGAUAUACAAUGAAUGUAUGCCACAUGGAAAUACAUGAGGAUCACCCAUGUAGAAGGUAAGGGAU [Eternabot (L2) Solution 37] (Eterna round: R97, puzzle: Exclusion 2) |  |  |  | 27.1 nM | 20.5 nM |  |
| GAUUAACAUGAGGAUCACCCAUGUGAGGAUAUACGAGAAUAGAUUUCGAUCAGAUAGAGUAGAAGGCACAGAUA [EX1 #1] (Eterna round: R97, puzzle: Exclusion 1) |  |  |  | 44.9 nM | 27 nM |  |
| GAUUAACAUGAGGAUCACCCAUGUGAGGAUAUGGAAUGGCUCAUUGUUUGAUUCCCGUCUAGAAGGCACAUCUU [1986#7] (Eterna round: R97, puzzle: Exclusion 1) |  |  |  | 150 nM | 116 nM |  |
| GAUUAUGCGAGCUUUAGGGACAUGAGGAUCACCCAUGUUCGUCUUAUUAAUCUGGGUACACUAGCAUACCUAAAUCU [JMF 8] (puzzle: Sensor v3, turn-off variant 1) | 26.9 nM | 44.1 nM | 30.5 nM |  |  |  |
| GAUUAUGCGAGCUUUAGGGACAUGAGGAUCACCCAUGUUCGUCUUAUUAGUCUGGGUACACUGACAUACCUAAAUCU [JMF 71] (puzzle: Sensor v3, turn-off variant 1) | 24.6 nM | 35.2 nM | 25.4 nM |  |  |  |
| GAUUAUGCGAGCUUUAGGGACAUGAGGAUCACCCAUGUUCGUCUUAUUGAUCUAGGUACGCUGACGUACCUAAAUCU [Mod of one of jandersonlee's solutions] (puzzle: Sensor v3, turn-off variant 1) | 20.5 nM | 35.2 nM | 23.4 nM |  |  |  |
| GAUUAUGCGAGCUUUAGGGACAUGAGGAUCACCCAUGUUCGUCUUAUUGAUCUGGGUACACUAACAUACCUAAAUCU [JMF 20] (puzzle: Sensor v3, turn-off variant 1) | 87.2 nM | 99.7 nM | 94.3 nM |  |  |  |
| GAUUAUGCGAGCUUUAGGGACAUGAGGAUCACCCAUGUUCGUCUUAUUGGUCUAGGUGCGCUAACAUACCUAAAUCU [JMF 51] (puzzle: Sensor v3, turn-off variant 1) | 21.9 nM | 34.8 nM | 25.4 nM |  |  |  |

| Sequence | apparent KD of MS2 coat protein [1] | apparent KD of MS2 coat protein [2] | apparent KD of MS2 coat protein [3] | apparent KD of MS2 coat protein (input ligand: FMN 200 uM) | apparent KD of MS2 coat protein (input ligand: none) | apparent KD of MS2 coat protein [4] |
| --- | --- | --- | --- | --- | --- | --- |
| GAUUAUGCGAGCUUUAGGGACAUGAGGAUCACCCAUGUUCGUCUUAUUGGUCUGGAUACACUGACAUACCUAAAUCU [JMF 60] (puzzle: Sensor v3, turn-off variant 1) | 16.8 nM | 22.6 nM | 18.4 nM |  |  |  |
| GAUUAUGCGAGCUUUAGGGACAUGAGGAUCACCCAUGUUCGUCUUAUUGGUCUGGAUGCACUAACAUACCUAAAUCU [JMF 28] (puzzle: Sensor v3, turn-off variant 1) | 22.4 nM | 30.4 nM | 24 nM |  |  |  |
| GAUUAUGCGAGCUUUAGGGACAUGAGGAUCACCCAUGUUCGUCUUGUUGAUCUAGGUACGCUGACAUACCUAAAUCU [JMF 99] (puzzle: Sensor v3, turn-off variant 1) | 19.6 nM | 25.6 nM | 19.7 nM |  |  |  |
| GAUUGACAUGAGGAUCACCCAUGUGAGGAUAUCGGCCGGACCGUGUUGGCUUCCGUCGCGAGAAGGCGCAUAGG [Exclusion 1 V39] (puzzle: Exclusion 1) | 173 nM | 82.2 nM | 101 nM |  |  |  |
| GAUUGACAUGAGGAUCACCCAUGUGAGGAUAUCGGCUGGACCGUGUUGGCUUCCGUUUCGAGAAGGCGCAUAGG [Exclusion 1 V44] (puzzle: Exclusion 1) |  | 23.2 nM |  |  |  |  |
| GAUUGCUCGUCUUGAAAACACAUGAGGAUCACCCAUGUAACUAGGGAAACCACGAUUAUAUUCGCUUUUCAGUGUAA [Eternabot (L2) Solution 2] (Eterna round: R97, puzzle: Sensor, turn-off variant 1) |  |  |  | 29.6 nM | 34.2 nM |  |
| GCAAGAAUAGGAUAUACAACAUGCCAGCUUCUUUACAACGCACAUGAGGAUCACCCAUGUAGAAGGGUUCUCUA [Exclusion-2-#13] (Eterna round: R97, puzzle: Exclusion 2) |  |  |  | 209 nM | 261 nM |  |
| GCAAGAUUCUGAGGAUAUGCGCUACAUCCCACAGCAGAAGGCGGAAAUUGACUGACAUGAGGAUCACCCAUGUGAUCCGCUUUC [Eternabot solution 33] (Eterna round: R96, puzzle: Exclusion NG 1) |  |  |  | 32.7 nM | 17.7 nM | 21.2 nM |
| GCAAGCUUUUGCUCGUCUUACAUGAGGAUCACCCAUGUUGGGUCCGGUCGCCGCGGCCGGGCCGGCCGGGCGCCGGG [-38, -65.5 kcal, A 10%] (Eterna round: R97, puzzle: Sensor, turn-off variant 1) |  |  |  | 31.2 nM | 33.3 nM |  |
| GCACGGAGUGUAGGAUAUCUGUGCGAUUAGCUCAGAGAAGGACACAUGAGGAUCACCCAUGUGUUCCAGCGAAAGCUUCCGUGC [Eli exng1 - 047] (Eterna round: R96, puzzle: Exclusion NG 1) |  |  |  | 8.15 nM | 10.6 nM | 9.32 nM |
| GCACUGACAGGAUAUACAUGAGGAUCACCCAUGUGACCCUUAUAGUACUCGCGUACUAGUAGAAGGGUCUGUGC [Omei Ex3 Model Bachelor's Dilema v33] (Eterna round: R97, puzzle: Exclusion 3) |  |  |  | 324 nM | 59.4 nM |  |
| GCACUGGCAGGAUAUACAUGAGGAUCACCCAUGUGAUCCCUUAGGUACAAAAGUACUAGUAGAAGGGCCUGUGC [Omei Ex3 Model Bachelor's Dilema v48] (Eterna round: R97, puzzle: Exclusion 3) |  |  |  | 294 nM | 968 nM |  |
| GCAGCAUAGUAAACAUACUGUUACAUGAGGAUCACCCAUGUACAGGAUAUGGUCUGGAUUACAGGCCAGAAGGGUACAAGCUGC [Eli exng3 - 023] (Eterna round: R96, puzzle: Exclusion NG 3) |  |  |  | 8.36 nM | 12.8 nM | 13 nM |
| GCAGCAUAGUUAACAUACUGUUACAUGAGGAUCACCCAUGUACAGGAUAUGGUCUGGAUUACAGGCCAGAAGGGUACAAGCUGC [Eli exng3 - 020] (Eterna round: R96, puzzle: Exclusion NG 3) |  |  |  | 10.7 nM | 12.6 nM | 7.8 nM |
| GCAGGAUAAGUCAGGAUAUACCUAUGGAUACAUAGGUAGAAGGGACAUGAGGAUCACCCAUGUGACUCGCCUGC [Fiskers BMX 4 - 73] (puzzle: Brourd's mod of Exclusion 4) |  | 27.6 nM |  |  |  |  |
| GCAGGAUAAGUCAGGAUAUACCUAUGGAUACAUAGGUAGAAGGGACAUGAGGAUCACCCAUGUUACUCGCCUGC [Fiskers BMX 4 - 74] (puzzle: Brourd's mod of Exclusion 4) |  | 13.6 nM |  |  |  |  |
| GCAGGCGUCUAGGCUCGUCUUAUUUUGAGAGGAUUGAUAACAUGAGGAUCACCCAUGUUUGUGGGAGAGUUGCAGUG [JR_SV3TOV2_Sub015] (puzzle: Sensor v3, turn-off variant 2) | 121 nM | 241 nM | 143 nM |  |  |  |
